Results on 13 substances are retold here after US20240132578A1.

Holding throughout (test): cell-based or functional assay
Assay [1] addresses HIV-1 Env of isolate MGRM-A-005 (clade A pseudovirus) (HIV-1).
Assay [2] has as its target HIV-1 Env of isolate MGRM-Chronic-B-008, clade B (HIV-1).
The target in assay [3] is HIV-1 Env of pseudovirus MGRM-F1-004 (clade F) (HIV-1).
For assay [4], the target named is HIV-1 Env of pseudovirus MGRM-F1-015 (clade F) (HIV-1).
The target of assay [5] is HIV-1 Env of pseudovirus MGRM-G-015 (HIV-1).
The target of assay [6] is HIV-1 IAVI-C3 envelope (Env) on pseudovirus (HIV-1).
For assay [7], the target named is HIV-1 MGRM-AE-003 Env (pseudovirus) (HIV-1).
Assay [8] deals with HIV-1 MGRM-AG-006 Env (pseudovirus) (HIV-1).
For assay [9], the target named is HIV-1 MGRM-G-009 Env (pseudovirus) (HIV-1).
In assay [10] the target is HIV-1 envelope glycoprotein (Env) of isolate MGRM-C-019 (HIV-1).
Assay [11] deals with HIV-1 isolate 94UG114 envelope glycoprotein (Env), clade D, on pseudovirus (HIV-1).
For assay [12], the target named is HIV-1 Env of isolate MGRM-AE-008 (pseudovirus) (HIV-1).
Assay [13] concerns the target HIV-1 Env of isolate MGRM-AG-006 (pseudovirus) (HIV-1).
In assay [14] the target is HIV-1 Env of isolate MGRM-G-004 (subtype G) (HIV-1).
Assay [15] has as its target HIV-1 Env of isolate MGRM-G-011 (subtype G) (HIV-1).
Assay [16] addresses aMLV envelope (negative control pseudovirus) (aMLV).
In assay [17] the target is HIV-1 92TH021 Env (HIV-1).
For assay [18], the target named is HIV-1 94UG103 Env (HIV-1).
In assay [19] the target is HIV-1 Env of isolate MGRM-F1-021 (pseudovirus) (HIV-1).
Assay [20] addresses HIV-1 Env of isolate MGRM-F1-023 (pseudovirus) (HIV-1).
For assay [21], the target named is HIV-1 JR-CSF Env T394A (HIV-1 (isolate JR-CSF)) (UniProt P20871).
The target in assay [22] is HIV-1 MGRM-A-010 Env (HIV-1).
In assay [23] the target is HIV-1 MGRM-C-027 Env (HIV-1).
Assay [24] has as its target HIV-1 MGRM-D-001 envelope protein (Env) on pseudovirus (HIV-1).
In assay [25] the target is HIV-1 envelope glycoprotein (Env) of isolate 92UG037, subtype A (HIV-1).
Assay [26] has as its target HIV-1 envelope glycoprotein (Env) of isolate 93TH305, on pseudovirus (HIV-1).
Assay [27] deals with HIV-1 envelope glycoprotein (Env) of isolate MG RM-A-004, subtype A (HIV-1).

By IC50 is commonly meant the concentration at which inhibition is half-maximal. For b12 (antibody), the IC50 (µg/ml), pseudovirus neutralization in [1] was 3.64 µg/mL; in assay [2], 2.82 µg/mL; in [5], more than 50 µg/mL; in assay [7], more than 50 µg/mL; in [8], more than 50 µg/mL; in assay [9] it was more than 50 µg/mL. The IC50 (µg/ml), pseudovirus neutralization in assay [10] and in assay [11] was more than 50 µg/mL throughout. In addition, the IC50 in assay [3] and in assay [4] was more than 50 µg/mL each time. Besides, in [6], the neutralization IC50 was determined as 5 µg/mL.
For 1443_C16 (PG16) (TCN-116) (antibody), the IC50 (µg/ml), pseudovirus neutralization was 0.09 µg/mL in [1]; 0.73 µg/mL in [2]; 5.33 µg/mL in [5]; 0.03 µg/mL in [7]; more than 50 µg/mL in assay [8]; more than 50 µg/mL in assay [9]. Moreover, the IC50 (µg/ml), pseudovirus neutralization in assay [10] is 0.002 µg/mL; in assay [11], more than 50 µg/mL. Besides, the concentration for half-maximal inhibition (IC50) in assay [3] is 0.43 µg/mL; in assay [4] it was more than 50 µg/mL. For the same substance, the neutralization IC50 in assay [6] was found to be 14.8 µg/mL.
For PGV04 (antibody), the IC50 (µg/mL), pseudovirus neutralization in [12] was 1.51 µg/mL; in assay [13], 1.23 µg/mL; in assay [14], more than 50 µg/mL; in [15], 0.78 µg/mL; in assay [16], more than 50 µg/mL.
4E10 (antibody): the IC50 (µg/ml), pseudovirus neutralization in [1] came out at 4.09 µg/mL; in [2], 16.7 µg/mL; in assay [5] it was 1.07 µg/mL; in assay [7] it was 0.34 µg/mL; in assay [8] it was 1.76 µg/mL; in [9], 1.34 µg/mL. The IC50 (µg/ml), pseudovirus neutralization in [10] was 3.49 µg/mL; in assay [11], 9.72 µg/mL. In addition, the IC50 stood at 2.74 µg/mL in assay [3] and 0.53 µg/mL in [4]. The neutralization IC50 in [6] was 5 µg/mL.
On to 2F5 (antibody), for which the IC50 (µg/ml), pseudovirus neutralization in assay [1] is 5.7 µg/mL; in [2] it was more than 50 µg/mL; in assay [5], 0.43 µg/mL; in assay [7], 0.24 µg/mL; in [8] it was 0.85 µg/mL; in [9], 7.21 µg/mL. Further, the IC50 (µg/ml), pseudovirus neutralization in assay [10] and in assay [11] was more than 50 µg/mL in each case. In addition, the values for the IC50 in assay [3] and in assay [4] were 4.31 µg/mL and 0.1 µg/mL, respectively. Moreover, in assay [6], the neutralization IC50 was more than 50 µg/mL.
Take 4858_P08 (PGT-123) (antibody): the IC50, pseudovirus neutralization in assay [17] was more than 10 µg/mL; in [18], 0.846 µg/mL; in assay [22], 0.492 µg/mL; in assay [23], 0.0169 µg/mL; in [25], 0.023 µg/mL; in assay [26], 0.008 µg/mL. Besides, the IC50, pseudovirus neutralization in assay [27] is more than 50 µg/mL. The IC50 (µg/mL), pseudovirus neutralization in assay [12] is more than 50 µg/mL; in assay [13], 0.014 µg/mL; in assay [19], 0.307 µg/mL; in [20] it was 0.053 µg/mL. Further, in [21], the Fold IC50 increase relative to wild-type (pseudovirus neutralization) stood at 0.4 fold. For the same substance, the IC50 (ug/mL), pseudovirus neutralization in assay [24] was determined as 0.215 µg/mL.
On to 5141_B17 (PGT-126) (antibody), for which the IC50, pseudovirus neutralization came to 0.115 µg/mL in assay [17]; 0.0091 µg/mL in assay [18]; 0.0033 µg/mL in [22]; 1.14 µg/mL in assay [23]; 0.011 µg/mL in [25]; 0.013 µg/mL in [26]. In [27], the IC50, pseudovirus neutralization was more than 50 µg/mL. The IC50 (µg/mL), pseudovirus neutralization in [12] was more than 50 µg/mL; in assay [13], 0.01 µg/mL; in assay [19] it was more than 50 µg/mL; in assay [20], 0.009 µg/mL. In [21], this substance had a Fold IC50 increase relative to wild-type (pseudovirus neutralization) of 0.6 fold. Further, the IC50 (ug/mL), pseudovirus neutralization in assay [24] is 0.0639 µg/mL.
As for 4838_L06 (PGT-121) (antibody), the IC50, pseudovirus neutralization is more than 10 µg/mL in assay [17], 0.031 µg/mL in assay [25], 0.007 µg/mL in assay [26] and more than 50 µg/mL in assay [27]. The values for the IC50 (µg/mL), pseudovirus neutralization in [19] and in assay [20] were 0.099 µg/mL and 0.097 µg/mL, respectively.
In the case of 1495_C14 (PGC14) (antibody), the IC50 (µg/ml), pseudovirus neutralization in [1], in [2], in assay [5], in [7], in assay [8] and in assay [9] was more than 50 µg/mL each time. Also, the IC50 (µg/ml), pseudovirus neutralization is 12 µg/mL in assay [10] and more than 50 µg/mL in assay [11]. Besides, the IC50 in assay [3] and in assay [4] was more than 50 µg/mL in each case. In assay [6], this substance gave a neutralization IC50 of more than 50 µg/mL.
For the substance 2G12 (antibody), the IC50 (µg/ml), pseudovirus neutralization is more than 50 µg/mL in [1]; 0.55 µg/mL in assay [2]; more than 50 µg/mL in assay [5]; more than 50 µg/mL in assay [7]; 3.92 µg/mL in assay [8]; more than 50 µg/mL in assay [9]. For the same substance, the IC50 (µg/ml), pseudovirus neutralization is more than 50 µg/mL in assay [10] and 13.9 µg/mL in [11]. The IC50 in [3] and in assay [4] was more than 50 µg/mL throughout. This substance also gave a neutralization IC50 in assay [6] of more than 50 µg/mL.
Regarding 5145_B14 (PGT-127) (antibody), the IC50 (µg/mL), pseudovirus neutralization was more than 50 µg/mL in assay [12], 0.021 µg/mL in assay [13], more than 50 µg/mL in [19] and 0.119 µg/mL in [20]. This substance also came in with a Fold IC50 increase relative to wild-type (pseudovirus neutralization) in [21] of 1.6 fold. The IC50, pseudovirus neutralization in [25] is 0.014 µg/mL; in [26], 0.017 µg/mL; in assay [27], more than 50 µg/mL.
Take 4877_D15 (PGT-122) (antibody): the IC50, pseudovirus neutralization is more than 10 µg/mL in [17]; 1.46 µg/mL in assay [18]; 1.68 µg/mL in [22]; 0.0388 µg/mL in assay [23]; 0.068 µg/mL in assay [25]; 0.013 µg/mL in [26]. For the same substance, in [27], the IC50, pseudovirus neutralization is more than 50 µg/mL. The IC50 (µg/mL), pseudovirus neutralization in assay [12] is more than 50 µg/mL; in assay [13], 0.028 µg/mL; in assay [19] it was 2.3 µg/mL; in [20] it was 0.154 µg/mL. In assay [24], this substance came in with an IC50 (ug/mL), pseudovirus neutralization of 0.867 µg/mL.
With 1496_C09 (PG9) (TCN-109) (antibody), the IC50, pseudovirus neutralization in assay [17] is 0.103 µg/mL; in assay [18] it was 0.31 µg/mL; in [22], 0.0375 µg/mL; in assay [23], 2.45 µg/mL. The IC50 (µg/mL), pseudovirus neutralization is 31.5 µg/mL in assay [12] and 0.335 µg/mL in assay [15]. Moreover, the IC50 (µg/ml), pseudovirus neutralization is 6.66 µg/mL in assay [2], 1.51 µg/mL in assay [5], 4.9 µg/mL in assay [9] and 0.01 µg/mL in [10]. In [6], this substance had a neutralization IC50 of 12.9 µg/mL.
